Here are results for two molecules from paper doi:10.1101/2024.02.19.580982 (bioRxiv, 2024).

This test addresses α-Synuclein preformed fibrils (α-Syn PFF) (mouse, UniProt O55042 1-140). The experiment in a line: ELISA.

B1: ΔCARD hNOD2-Fc (Fc fusion)
chain: CKKYMAKLRTTVSAQSRFLSTYDGAETLCLEDIYTENVLEVWADVGMAGPPQKSPATLGLEELFSTPGHLNDDADTVLVVGEAGSGKSTLLQRLHLLWAAGQDFQEFLFVFPFSCRQLQCMAKPLSVRTLLFEHCCWPDVGQEDIFQLLLDHPDRVLLTFDGFDEFKFRFTDRERHCSPTDPTSVQTLLFNLLQGNLLKNARKVVTSRPAAVSAFLRKYIRTEFNLKGFSEQGIELYLRKRHHEPGVADRLIRLLQETSALHGLCHLPVFSWMVSKCHQELLLQEGGSPKTTTDMYLLILQHFLLHATPPDSASQGLGPSLLRGRLPTLLHLGRLALWGLGMCCYVFSAQQLQAAQVSPDDISLGFLVRAKGVVPGSTAPLEFLHITFQCFFAAFYLALSADVPPALLRHLFNCGRPGNSPMARLLPTMCIQASEGKDSSVAALLQKAEPHNLQITAAFLAGLLSREHWGLLAECQTSEKALLRRQACARWCLARSLRKHFHSIPPAAPGEAKSVHAMPGFIWLIRSLYEMQEERLARKAARGLNVGHLKLTFCSVGPTECAALAFVLQHLRRPVALQLDYNSVGDIGVEQLLPCLGVCKALYLRDNNISDRGICKLIECALHCEQLQKLALFNNKLTDGCAHSMAKLLACRQNFLALRLGNNYITAAGAQVLAEGLRGNTSLQFLGFWGNRVGDEGAQALAEALGDHQSLRWLSLVGNNIGSVGAQALALMLAKNVMLEELCLEENHLQDEGVCSLAEGLKKNSSLKILKLSNNCITYLGAEALLQALERNDTILEVWLRGNTFSLEEVDKLGCRDTRLLL
For orientation: Kd means a measure of binding affinity in units of concentration. In the case of B1, binding was characterised by a dissociation constant (Kd) of 16.4 µM.

B2: ΔNBD hNOD2-Fc (Fc fusion)
chain: MGEEGGSASHDEEERASVLLGHSPGCEMCSQEAFQAQRSQLVELLVSGSLEGFESVLDWLLSWEVLSWEDYEGFHLLGQPLSHLARRLLDTVWNKGTWACQKLIAAAQEAQADSQSPKLHGCWDPHSLHPARDLQSHRPAIVRRLHSHVENMLDLAWERGFVSQYECDEIRLPIFTPSQRARRLLDLATVKANGLAAFLLQHVQELPVPLALPLEAATCKKYMAKLRTTVSAQSRFLSTYDGAETLCLEDIYTENVLEVWADVGMAGPPQKSPATLGLEELFSTPGHLNDDAADVPPALLRHLFNCGRPGNSPMARLLPTMCIQASEGKDSSVAALLQKAEPHNLQITAAFLAGLLSREHWGLLAECQTSEKALLRRQACARWCLARSLRKHFHSIPPAAPGEAKSVHAMPGFIWLIRSLYEMQEERLARKAARGLNVGHLKLTFCSVGPTECAALAFVLQHLRRPVALQLDYNSVGDIGVEQLLPCLGVCKALYLRDNNISDRGICKLIECALHCEQLQKLALFNNKLTDGCAHSMAKLLACRQNFLALRLGNNYITAAGAQVLAEGLRGNTSLQFLGFWGNRVGDEGAQALAEALGDHQSLRWLSLVGNNIGSVGAQALALMLAKNVMLEELCLEENHLQDEGVCSLAEGLKKNSSLKILKLSNNCITYLGAEALLQALERNDTILEVWLRGNTFSLEEVDKLGCRDTRLLL
B2: the Kd stood at 0.42 µM.
